# Data published in IntAct's records for PubMed 24997597.
# B1: Centrosomal protein of 152 kDa (Homo sapiens), O94986-3 (parent)
# chain: MSLDFGSVALPVQNEDEEYDEEDYEREKELQQLLTDLPHDMLDDDLSSPELQYSDCSEDGTDGQPHHPEQLEMSWNEQMLPKSQSVNGYNEIQSLYAGEKCGNVWEENRSKTEDRHPVYHPEEGGDEGGSGYSPPSKCEQTDLYHLPENFRPYTNGQKQEFNNQATNVIKFSDPQWNHFQGPSCQGLEPYNKVTYKPYQSSAQNNGSPAQEITGSDTFEGLQQQFLGANENSAENMQIIQLQVLNKAKERQLENLIEKLNESERQIRYLNHQLVIIKDEKDGLTLSLRESQKLFQNGKEREIQLEAQIKALETQIQALKVNEEQMIKKSRTTEMALESLKQQLVDLHHSESLQRAREQHESIVMGLTKKYEEQVLSLQKNLDATVTALKEQEDICSRLKDHVKQLERNQEAIKLEKTEIINKLTRSLEESQKQCAHLLQSGSVQEVAQLQFQLQQAQKAHAMSANMNKALQEELTELKDEISLYESAAKLGIHPSDSEGELNIELTESYVDLGIKKVNWKKSKVTSIVQEEDPNEELSKDEFILKLKAEVQRLLGSNSMKRHLVSQLQNDLKDCHKKIEDLHQVKKDEKSIEVETKTDTSEKPKNQLWPESSTSDVVRDDILLLKNEIQVLQQQNQELKETEGKLRNTNQDLCNQMRQMVQDFDHDKQEAVDRCERTYQQHHEAMKTQIRESLLAKHALEKQQLFEAYERTHLQLRSELDKLNKEVTAVQECYLEVCREKDNLELTLRKTTEKEQQTQEKIKEKLIQQLEKEWQSKLDQTIKAMKKKTLDCGSQTDQVTTSDVISKKEMAIMIEEQKCTIQQNLEQEKDIAIKGAMKKLEIELELKHCENITKQVEIAVQNAHQRWLGELPELAEYQALVKAEQKKWEEQHEVSVNKRISFAVSEAKEKWKSELENMRKNILPGKELEEKIHSLQKELELKNEEVPVVIRAELAKARSEWNKEKQEEIHRIQEQNEQDYRQFLDDHRNKINEVLAAAKEDFMKQKTELLLQKETELQTCLDQSRREWTMQEAKRIQLEIYQYEEDILTVLGVLLSDTQKEHISDSEDKQLLEIMSTCSSKWMSVQYFEKLKGCIQKAFQDTLPLLVENADPEWKKRNMAELSKDSASQGTGQGDPGPAAGHHAQPLALQATEAEAEENNKVVEELIEENNDMKNKLEELQTLCKTPPRSLSAGAIENACLPCSGGALEELRGQYIKAVKKIKCDMLRYIQESKERAAEMVKAEVLRERQETARKMRKYYLICLQQILQDDGKEGAEKKIMNAASKLATMAKLLETPISSKSQSKTTQSALPLTSEMLIAVKKSKRNDVNQKIPCCIESKSNSVNTITRTLCEQAPKRRAACNLQRLLENSEHQSIKHVGSKETHLEFQFGDGSCKHLNSLPRNVSPEFVPCEGEGGFGLHKKKDLLSDNGSESLPHSAAYPFLGTLGNKPSPRCTPGPSESGCMHITFRDSNERLGLKVYKCNPLMESENAASEKSQGLDVQEPPVKDGGDLSDCLGWPSSSATLSFDSREASFVHGRPQGTLEIPSESVKSKQFSPSGYLSDTEESNMICQTMKCQRYQTPYLSEETTYLEPGKISVNCGHPSRHKADRLKSDFKKLSSTLPSSVCQQPSRKLIVPLSSQQDSGFDSPFVNLD
# partner: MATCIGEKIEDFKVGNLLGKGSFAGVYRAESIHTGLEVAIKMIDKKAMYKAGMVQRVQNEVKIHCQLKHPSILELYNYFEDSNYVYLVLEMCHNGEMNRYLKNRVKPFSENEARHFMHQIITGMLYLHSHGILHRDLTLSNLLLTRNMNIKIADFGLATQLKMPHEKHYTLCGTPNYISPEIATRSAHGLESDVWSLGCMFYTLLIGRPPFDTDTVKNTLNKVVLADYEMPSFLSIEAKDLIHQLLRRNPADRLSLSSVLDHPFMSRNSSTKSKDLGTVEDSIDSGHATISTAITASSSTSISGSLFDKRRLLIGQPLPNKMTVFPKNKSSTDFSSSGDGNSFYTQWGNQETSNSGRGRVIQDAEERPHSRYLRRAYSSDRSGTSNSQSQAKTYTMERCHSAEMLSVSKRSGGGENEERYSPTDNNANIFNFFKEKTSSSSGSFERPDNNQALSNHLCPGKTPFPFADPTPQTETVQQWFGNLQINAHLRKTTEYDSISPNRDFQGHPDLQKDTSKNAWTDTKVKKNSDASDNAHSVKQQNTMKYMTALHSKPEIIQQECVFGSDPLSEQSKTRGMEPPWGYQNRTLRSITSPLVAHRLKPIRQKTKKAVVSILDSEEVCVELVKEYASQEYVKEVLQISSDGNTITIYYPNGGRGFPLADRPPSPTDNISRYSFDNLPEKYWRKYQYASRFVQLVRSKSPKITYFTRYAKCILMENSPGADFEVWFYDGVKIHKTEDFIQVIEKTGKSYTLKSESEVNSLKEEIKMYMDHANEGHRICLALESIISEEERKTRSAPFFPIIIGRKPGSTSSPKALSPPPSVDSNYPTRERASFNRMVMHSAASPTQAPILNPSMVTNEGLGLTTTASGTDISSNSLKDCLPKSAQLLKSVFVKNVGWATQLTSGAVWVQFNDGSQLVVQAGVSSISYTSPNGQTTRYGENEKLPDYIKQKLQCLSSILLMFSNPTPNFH
# B2: Serine/threonine-protein kinase PLK4 (Homo sapiens), O00444 (parent)
# chain: B1 partner
# Variants of: B1
# Conditions: with plk4_human PLK4, O00444
row,effect of a mutation on the interaction,Variant
1,decreasing interaction strength,V8A
2,decreasing interaction strength,E21K

# Variants of: B2
# Conditions: with CEP152, O94986-3
row,effect of a mutation on the interaction,Variant
1,decreasing interaction strength,K711A
2,disrupting interaction strength,K685A
